Target: cardiac troponin I (CTNI) (UniProt P19429 2-210)
Assay: pull-down with anti-CTNI antibody magnetic beads, supernatant fluorescence; 2 uM aptamer (10 uL), 10 uM CTNI (100 uL); fluorescence about 1400 to 1050 A.U.; PBS pH 7.4 washes; binding buffer not stated; room temperature 2 h (solution pull-down); 30 min bead reaction on sensor
Conditions: protein: commercial; label: 3'-6-FAM

Sequence of cardiac troponin I (CTNI) (P19429 2-210): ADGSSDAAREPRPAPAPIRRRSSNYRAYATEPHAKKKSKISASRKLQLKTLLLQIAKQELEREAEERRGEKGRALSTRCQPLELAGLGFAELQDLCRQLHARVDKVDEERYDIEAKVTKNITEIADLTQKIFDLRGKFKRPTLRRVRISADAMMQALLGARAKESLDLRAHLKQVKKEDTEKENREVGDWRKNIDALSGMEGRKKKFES

CGTGCAGTACGCCAACCTTTCTCATGCGCTGCCCCTCTTA (ssDNA, 5'-NH2) [CTNI aptamer]: binds.
